Bridges are numbered along the chain shown (N, C = ends).
Biological target: T1, human glucagon receptor (human, UniProt P47871 26-477)
T1 construct: whole, on cells; The assay used plasma membranes from stably transfected BHK-21 cells; also called cloned human glucagon receptor
Assay: competition radioligand binding; displacement of 125I-glucagon from BHK-21 membranes with the human glucagon receptor; filtration
Method: Binding of peptides to the glucagon receptor was assayed in a competition binding-assay using a membrane fraction containing the cloned human glucagon receptor and radiolabeled glucagon.
For measuring competition with glucagon binding, 20 μg of the membrane suspension were incubated for 60 minutes in covered microtiter plates (Optiplate, Packard Instruments) with 50.000 cpm 125I-glucagon (Amersham Pharmacia), and one concentration of the test compound in a total volume of 100 μl. The protein-bound radioactivity is separated from unbound ligand by filtration and washing on a Multiscreen-Vakuumfiltrationsystem (Millipore) using GC/B filters (Packard) and measured after addition of 20 μl Microscint 20 in a topcount scintillation counter (Packard). The non-specific binding is defined as radioactivity bound in the presence of 1 μM glucagon (Wherl GmbH).

T1 sequence (P47871 26-477): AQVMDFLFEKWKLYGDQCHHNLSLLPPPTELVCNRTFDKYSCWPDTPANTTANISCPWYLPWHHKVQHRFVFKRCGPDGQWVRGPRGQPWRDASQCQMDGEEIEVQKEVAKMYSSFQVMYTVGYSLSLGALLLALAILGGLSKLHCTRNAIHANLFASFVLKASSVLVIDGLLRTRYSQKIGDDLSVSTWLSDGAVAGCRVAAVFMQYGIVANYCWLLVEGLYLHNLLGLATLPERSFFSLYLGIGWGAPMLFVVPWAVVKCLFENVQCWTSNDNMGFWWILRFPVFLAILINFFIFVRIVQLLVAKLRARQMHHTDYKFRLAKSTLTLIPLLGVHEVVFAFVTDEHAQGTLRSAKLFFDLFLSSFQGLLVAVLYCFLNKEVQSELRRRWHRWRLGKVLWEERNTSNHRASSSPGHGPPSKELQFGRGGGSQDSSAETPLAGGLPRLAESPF

Row | Binder | IC50 [nM]
1 | GLPWGCPSDIPGWNTPWAC-OMe (disulfide 6-19; lactam N-9; SMILES CC[C@H](C)[C@@H]1NC(=O)[C@@H]2CC(=O)NCC(=O)N[C@@H](CC(C)C)C(=O)N3CCC[C@H]3C(=O)N[C@@H](Cc3c[nH]c4ccccc34)C(=O)NCC(=O)N[C@@H](CSSC[C@@H](C(=O)OC)NC(=O)[C@H](C)NC(=O)[C@H](Cc3c[nH]c4ccccc34)NC(=O)[C@@H]3CCCN3C(=O)[C@H]([C@@H](C)O)NC(=O)[C@H](CC(N)=O)NC(=O)[C@H](Cc3c[nH]c4ccccc34)NC(=O)CNC(=O)[C@@H]3CCCN3C1=O)C(=O)N1CCC[C@H]1C(=O)N[C@@H](CO)C(=O)N2) [methyl ester of the bicyclic nonadecapeptide of Example 1] | 135
2 | GLPWGCPSDIPGWNTPWAC-OH (disulfide 6-19; lactam N-9; SMILES CC[C@H](C)[C@@H]1NC(=O)[C@@H]2CC(=O)NCC(=O)N[C@@H](CC(C)C)C(=O)N3CCC[C@H]3C(=O)N[C@@H](Cc3c[nH]c4ccccc34)C(=O)NCC(=O)N[C@@H](CSSC[C@@H](C(=O)O)NC(=O)[C@H](C)NC(=O)[C@H](Cc3c[nH]c4ccccc34)NC(=O)[C@@H]3CCCN3C(=O)[C@H]([C@@H](C)O)NC(=O)[C@H](CC(N)=O)NC(=O)[C@H](Cc3c[nH]c4ccccc34)NC(=O)CNC(=O)[C@@H]3CCCN3C1=O)C(=O)N1CCC[C@H]1C(=O)N[C@@H](CO)C(=O)N2) [bicyclic nonadecapeptide of Example 1 (SEQ ID NO. 5), free acid (R = H)] | 100

Source: patent publication US20040072736A1 (Boehringer Ingelheim, published 2004)
